Source: article PMC5437018, “Mouse Rif1 is a regulatory subunit of protein phosphatase 1 (PP1)” (Scientific Reports, 2017)

Legend:
Conditions in all cases: both partners purified
[1] = target: T1, Recombinant purified α-isoform of mammalian PP1 (residues 1–330), tag cleaved (mammalian, UniProt P62136 1-330); experiment: ITC; CRI (140 µM) titrated into PP1 (18 µM), iTC200, 25 °C; 20 mM Tris-HCl pH 7.5, 200 mM NaCl, 1 mM MnCl2, 5 mM β-mercaptoethanol, 10% glycerol
T1 construct: Protein phosphatase 1 catalytic subunit, α-isoform, 'mammalian', residues 1–330; synthetic gene (GenScript); Printed mass 37.5 kDa; Subcloned into pMAL-c2G under the Ptac promoter; also called PP1α; source: E. coli BL21 AI (RIL), purified (TALON, TEV cleavage, heparin Sepharose); not shown: His6, N-terminal, cleaved
T1 sequence (P62136 whole entry, the tested form may be a part, canonical isoform): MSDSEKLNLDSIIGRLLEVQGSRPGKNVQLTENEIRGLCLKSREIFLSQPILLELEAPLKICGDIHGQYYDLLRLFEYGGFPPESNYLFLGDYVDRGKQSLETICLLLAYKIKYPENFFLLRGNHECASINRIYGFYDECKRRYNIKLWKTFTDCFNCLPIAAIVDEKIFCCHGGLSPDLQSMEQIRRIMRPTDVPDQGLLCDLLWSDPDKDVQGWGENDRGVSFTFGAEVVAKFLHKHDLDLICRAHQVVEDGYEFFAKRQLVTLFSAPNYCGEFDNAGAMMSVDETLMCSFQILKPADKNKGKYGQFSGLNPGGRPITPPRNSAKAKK

[2] = target: T1, Recombinant purified α-isoform of …; experiment: SEC; analytical gel filtration on Superdex 75 in 20 mM Tris-HCl pH 7.5, 200 mM NaCl, 2 mM DTT, 1 mM MnCl2; PP1/CRI at molar ratios 1:1, 1:3 and 2:1
[3] = target: T1, Recombinant purified α-isoform of …; experiment: SPR; Biacore 3000; PP1 covalently coupled to a CM5 chip; Rif1 CRI, mutants and peptide injected at 20 µl/min in 10 mM Tris-HCl pH 7.5, 250 mM NaCl, 1 mM DTT, 2 mM MnCl2, 0.005% Tween 20; 1:1 binding model

B1: Rif1 CRI (residues 2093–2190), purified, wild type (domain or fragment, mouse, UniProt Q6PR54 2093-2190, looked up)
chain: TSPEKLELDSFGSVNESPSGMQQARCVWSPLASPSTSILKRGLKRSQEDEISPVNKIRRVSFADPIYQAGLADDIDRRCSVVRSHSSNSSPIIKSVKT
notes: Rif1, mouse, CRI, residues 2093–2190; For NMR the same fragment was 15N or 15N/13C labelled; Printed mass 10.8 kDa; also called CR1; 15N-labeled CRI; source: recombinant, purified (TALON beads, tag cleaved by TEV protease)
For B1, the Kd [1] was 22.8 ± 4.2 nM, the dH [1] was -23.8 ± 0.129 kcal/mol and the “stoichiometry N” value [2] was 1. It also gave a Kd [3] of 9.7 ± 1.7 nM.
